Results on one molecule are retold here after US20160289342A1 (Eli Lilly, published 2016).

In one assay the target is murine BAFF (murine, UniProt Q9WU72 127-309, limits assumed). Kind of assay: not described.
In a further assay the target is FcγIIIa (V158) receptor (UniProt P08637 17-254). In words: cell-based or functional assay.
Another assay concerns the target FcγIIIa (F158) receptor (UniProt P08637 17-254). In words: cell-based or functional assay.
Assay [1] has as its target T1, recombinant human soluble BAFF (human, UniProt Q9Y275 134-285).
T1 construct: domain: soluble BAFF; also called human BAFF; soluble human BAFF trimer
In words: MSD-SET with biotinylated recombinant human soluble BAFF, N=3. How it is done: Binding affinity and stoichiometry of the exemplified bispecific antibody to human BAFF is measured by MSD-SET using purified recombinant human soluble BAFF (expressed from HEK293 cells). Purified recombinant BAFF is biotinylated using EZ-Link Sulfo-NHS-LC biotin reagent (Thermo Scientific, p/n. 21335).
Multi-array 96-well assay plates (Meso Scale Discovery, p/n. L15XA-3) are coated with 3.5 μg/mL of bispecific antibody and incubated overnight at 4° C. Following incubation, the plates are washed three times with PBS, then blocked using 3% Blocker A solution for 45 minutes at room temperature. The plates are then washed again with PBS. Exemplified bispecific antibody, starting at a concentration of 224 pM, is serially diluted (using 2-fold dilutions) in a V-bottom 96-well plate creating 12 different bispecific antibody concentrations. 7 pM of biotinylated recombinant BAFF is mixed with each dilution of exemplified bispecific antibody and then incubated at 37° C. for 36-48 hours (to reach equilibrium). Equilibrated samples are added to a well of the MSD multi-array 96-well assay plate previously coated with exemplified bispecific antibody; samples are mixed for 2.5 minutes, and then washed three times with PBS. […] 1× Read Buffer T (Meso Scale Discovery, p/n. R92TC-1) is added to each well and plates are read on a MSDSI6000 plate reader (Meso Scale Discovery, Rockville Md.). […]

Sequence of FcγIIIa (F158) receptor (P08637 17-254): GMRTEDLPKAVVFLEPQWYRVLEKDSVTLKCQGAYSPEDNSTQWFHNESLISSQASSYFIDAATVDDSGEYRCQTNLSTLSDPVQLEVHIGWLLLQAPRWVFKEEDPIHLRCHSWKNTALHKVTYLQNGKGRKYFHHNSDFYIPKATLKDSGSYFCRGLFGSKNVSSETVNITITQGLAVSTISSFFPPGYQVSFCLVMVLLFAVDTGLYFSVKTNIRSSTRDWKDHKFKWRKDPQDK
T1 sequence (Q9Y275 134-285 limits assumed): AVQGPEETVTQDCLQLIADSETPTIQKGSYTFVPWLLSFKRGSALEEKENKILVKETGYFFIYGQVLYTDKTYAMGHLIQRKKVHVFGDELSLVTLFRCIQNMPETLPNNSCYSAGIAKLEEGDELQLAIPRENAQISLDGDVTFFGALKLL
Sequence of FcγIIIa (V158) receptor (P08637 17-254 F176V): as the sequence (P08637 17-254) above, with F160V counted along it
Sequence of murine BAFF (Q9WU72 127-309 limits assumed): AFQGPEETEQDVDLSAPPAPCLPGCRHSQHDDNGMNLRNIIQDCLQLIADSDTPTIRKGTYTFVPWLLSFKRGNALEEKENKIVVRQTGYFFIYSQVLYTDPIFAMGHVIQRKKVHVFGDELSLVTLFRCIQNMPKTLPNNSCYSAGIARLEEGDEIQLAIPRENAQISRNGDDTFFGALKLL

B1: exemplified bispecific antibody of Table 1 (anti-CD20 IgG1 mAb with anti-BAFF scFv linked at the N-terminus of each heavy chain) (bispecific antibody)
heavy: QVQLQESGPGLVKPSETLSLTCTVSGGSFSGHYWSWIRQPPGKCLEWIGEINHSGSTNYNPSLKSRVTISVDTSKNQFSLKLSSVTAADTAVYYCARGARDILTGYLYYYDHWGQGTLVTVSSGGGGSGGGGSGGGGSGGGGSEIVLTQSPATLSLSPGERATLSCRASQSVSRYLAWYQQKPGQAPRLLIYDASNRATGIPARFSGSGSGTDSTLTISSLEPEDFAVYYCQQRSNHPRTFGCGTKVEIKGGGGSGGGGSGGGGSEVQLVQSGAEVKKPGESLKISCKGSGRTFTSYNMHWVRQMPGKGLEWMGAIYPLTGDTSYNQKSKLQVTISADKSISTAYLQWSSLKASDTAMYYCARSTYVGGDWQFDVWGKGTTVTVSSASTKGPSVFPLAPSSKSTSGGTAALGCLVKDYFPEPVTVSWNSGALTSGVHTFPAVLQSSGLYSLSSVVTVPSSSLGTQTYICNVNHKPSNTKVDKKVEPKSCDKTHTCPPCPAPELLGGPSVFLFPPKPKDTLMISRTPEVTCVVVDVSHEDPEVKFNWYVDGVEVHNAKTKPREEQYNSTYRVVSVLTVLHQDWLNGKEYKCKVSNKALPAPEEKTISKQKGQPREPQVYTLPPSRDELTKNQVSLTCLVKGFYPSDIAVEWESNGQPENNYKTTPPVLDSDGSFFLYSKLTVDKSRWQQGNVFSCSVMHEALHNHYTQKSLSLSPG
light: EIVLTQSPGTLSLSPGERATLSCRASSSVPYIHWYQQKPGQAPRLLIYATSALASGIPDRFSGSGSGTDFTLTISRLEPEDFAVYYCQQWLSHPPTFGQGTKLEIKRTVAAPSVFIFPPSDEQLKSGTASVVCLLNNFYPREAKVQWKVDNALQSGNSQESVTEQDSKDSTYSLSSTLTLSKADYEKHKVYACEVTHQGLSSPVTKSFNRGEC
modifications: glycosylated at asparagine residue 566 of SEQ ID NO:1
notes: also called Exemplified Bispecific Ab; exemplified antibody
As usually defined, the Kd is the equilibrium constant for the complex coming apart. For B1, the “fold reduction in binding as compared to human BAFF” value with murine BAFF is roughly 250 fold. The “EC50 of NFAT-luciferase reporter signal (ADCC), WIL2-S + Jurkat (V158)” value with FcγIIIa (V158) receptor stood at 4.61 pM. Besides, in the assay with FcγIIIa (F158) receptor, the “EC50 of NFAT-luciferase reporter signal (ADCC), WIL2-S + Jurkat (F158)” value was determined as 31.4 pM. For the same molecule, the Kd in assay [1] amounted to 0.3 pM.
